# Reference: publication PMC8895158 (2022)
# Target: His-Src SH3 (UniProt P12931 84-145)
# Experiment: SPR
binder,measurement,value
RKLPPRPSK [RLP1 peptide],Kd,9.97 µM
